According to patent US20230091653:

Key:
[1] = system: h00-7 (non-binding control antibody h00 conjugated with compound 7, mp-Leu-Ala-Glu-PABC-MMAE)
[2] = system: h00-37 (non-binding control antibody h00 conjugated with compound 37, mp-val-cit-PABC-MMAE)
[3] = system: h00-5 (non-binding control antibody h00 conjugated with compound 5, mp-D-Leu-Ala-Glu-PABC-MMAE)

Row | Substance | percentage of drug cleaved from the heavy chain (3 h at 37 C, pH 4.5, QToF mass spectrometry) [1] | percentage of drug cleaved from the heavy chain (3 h at 37 C, pH 4.5, QToF mass spectrometry) [2] | percentage of drug cleaved from the heavy chain (3 h at 37 C, pH 4.5, QToF mass spectrometry) [3] | percentage of drug cleaved from the heavy chain (3 h at 37 C, QToF mass spectrometry) [1] | percentage of drug cleaved from the heavy chain (3 h at 37 C, QToF mass spectrometry) [2] | percentage of drug cleaved from the heavy chain (3 h at 37 C, QToF mass spectrometry) [3]
1 | Cathepsin B | percentage of drug cleaved from the heavy chain of non-targeted ADCs 5 and 7 in vitro by Cathepsin B is similar to that found for non-targeted ADC 37 | percentage of drug cleaved from the heavy chain of non-targeted ADCs 5 and 7 in vitro by Cathepsin B is similar to that found for non-targeted ADC 37 | percentage of drug cleaved from the heavy chain of non-targeted ADCs 5 and 7 in vitro by Cathepsin B is similar to that found for non-targeted ADC 37 | – | – | –
2 | neutrophil elastase | – | – | – | the h00-5 conjugate ... has its heavy chain cleaved by neutrophil elastase to a significantly lower extent than h00-7 | percentage of drug cleaved from the heavy chain of non-targeted ADC 5 in vitro by neutrophil elastase is lower than that found for non-targeted ADC 37 | no proteolosis of h00-5 by neutrophil elastase was observed
